Source: paper PMC3618186, “Dynein and Dynactin Leverage Their Bivalent Character to Form a High-Affinity Interaction” (PLoS ONE, 2013)

B1: dynactin p150^Glued coiled-coil 1B (CC1B), residues 381–530 (domain or fragment, R. norvegicus, UniProt P28023 381-530, looked up)
chain: SSEKQEHVKLQKLMEKKNQELEVVRQQRERLQEELSQAESTIDELKEQVDAALGAEEMVEMLTDRNLNLEEKVRELRETVGDLEAMNEMNDELQENARETELELREQLDMAGARVREAQKRVEAAQETVADYQQTIKKYRQLTAHLQDVN
notes: also called p150^Glued CC1B; source: E. coli BL21 Star (DE3), purified (Ni-NTA, Ulp1 cleavage, HiTrap Q XL, Superdex 75); not shown: His6, N-terminal, cleaved; SMT3 (S. cerevisiae SUMO), N-terminal, cleaved
B2: dynactin p150^Glued coiled-coil 1A (CC1A), residues 204–348 (domain or fragment, R. norvegicus, UniProt P28023 204-348, looked up)
chain: PGAAPPLPSPSKEEEGLRDQVRDLEEKLETLRLKRSEDKAKLKELEKHKIQLEQVQEWKSKMQEQQADLQRRLKEAKEAKEALEAKERYMEEMADTADAIEMATLDKEMAEERAESLQQEVEALKERVDELTTDLEILKAEIEEK
notes: R. norvegicus dynactin p150Glued, residues 204-348; Dimer at 4°C by sedimentation equilibrium; source: E. coli BL21 Star (DE3), purified (Ni-NTA, Ulp1 cleavage, HiTrap Q XL, Superdex 75); not shown: His6, N-terminal, cleaved; SMT3 (S. cerevisiae SUMO), N-terminal, cleaved
B3: p150^Glued CC2 (residues 928–1049) (domain or fragment, rat (numbering stated as rat, p-0002), UniProt P28023 928-1049, looked up)
chain: AALRAEITDAEGLGLKLEDRETVIKELKKSLKIKGEELSEANVRLSLLEKKLDSAAKDADERIEKVQTRLEETQTLLRKKEKEFEETMDALQADIDQLEAEKTELKQRLNSQSKRTIEGLRG
notes: Unpublished observation of the authors
B4: S. cerevisiae dynein intermediate chain Pac11, residues 1–86, wild type (domain or fragment, UniProt P40960 1-86, looked up)
chain: MERLKQLEEKRRQLKELRERRKQASLFPGSETMGHHPTEVHAKATMVSVSVQTDMEEGSKIQEPQSAYLRRKEVITYDKGIQTDQI
notes: S. cerevisiae dynein intermediate chain Pac11, residues 1-86; Cloned in pGEX 6P-3; also called wt-Pac11^1–86; Pac11 1–86; source: E. coli BL21 Star (DE3), purified (Glutathione Sepharose 4B, precision protease, Superdex 75)

Assays:
[1] = target: the molecule itself; test: AUC; sedimentation equilibrium of the p150Glued fragments alone, 4°C, 1x PBS, 1 mM TCEP; monomer-dimer model (dimer to monomers)
[2] = target: the molecule itself; test: not stated; unpublished observation
[3] = target: B1; test: native gel or EMSA; native PAGE; purified proteins incubated at 25°C for five minutes in equimolar or two fold molar excess; 12% gels with a stacking gel at pH 7.4 or 8–25% gradient gels; conditions: both partners purified

Binder | Kd [1] | stoichiometry N [1] | stoichiometry N [2] | binding result [3]
B1 | < 60 nM | 2 |  | 
B2 | < 40 nM | 2 |  | 
B3 |  |  | 2 | 
B4 |  |  |  | binds
